Values belong to the binder of their own block, whether it stands above or below them.
Tests used:
[1] = target: KEAP1 (wild-type full-length), His-tagged (human) (UniProt Q14145); assay: AlphaScreen; 2.4 nM FLAG-NRF2, 150 nM His-KEAP1; Rep 2; control for I86V
[2] = target: KEAP1 (wild-type full-length), His-tagged (human) (UniProt Q14145); assay: AlphaScreen; NRF2 wt isoform 1 9.6 nM, KEAP1 150 nM; signal against NRF2-only control; control for Q75R
[3] = target: KEAP1 (wild-type full-length), His-tagged (human) (UniProt Q14145); assay: AlphaScreen; NRF2 wt isoform 1 9.6 nM, KEAP1 150 nM; set as the 100 % reference for Q75R
[4] = target: KEAP1 (wild-type full-length), His-tagged (human) (UniProt Q14145); assay: AlphaScreen; mean over 9.6, 19.2 and 38.4 nM NRF2; 150 nM His-KEAP1
[5] = target: KEAP1 (wild-type full-length), His-tagged (human) (UniProt Q14145); assay: AlphaScreen; FLAG-NRF2 wt isoform 1 9.6 nM, His-KEAP1 150 nM; Rep 2; positive control for Q75R
[6] = target: KEAP1 (wild-type full-length), His-tagged (human) (UniProt Q14145); assay: AlphaScreen, all variants on one plate; lower condition (9.6 nM NRF2), KEAP1 150 nM; the reference itself
[7] = target: KEAP1 (wild-type full-length), His-tagged (human) (UniProt Q14145); assay: AlphaScreen; 4.8 nM FLAG-NRF2, 150 nM His-KEAP1; Rep 1; control for I28V
[8] = target: KEAP1 (wild-type full-length), His-tagged (human) (UniProt Q14145); assay: AlphaScreen; FLAG-NRF2 wt isoform 1 1228.8 nM, His-KEAP1 150 nM; Rep 1; positive control for Q75R
[9] = target: KEAP1 (wild-type full-length), His-tagged (human) (UniProt Q14145); assay: AlphaScreen; NRF2 wt isoform 1 1228.8 nM, KEAP1 150 nM; signal against NRF2-only control; control for Q75R
[10] = target: KEAP1 (wild-type full-length), His-tagged (human) (UniProt Q14145); assay: AlphaScreen; FLAG-NRF2 wt isoform 1 76.8 nM, His-KEAP1 150 nM; Rep 1; positive control for Q75R
[11] = target: KEAP1 (wild-type full-length), His-tagged (human) (UniProt Q14145); assay: AlphaScreen; FLAG-NRF2 wt isoform 1 9.6 nM, His-KEAP1 150 nM; Repeat 2; positive control for Q75R
[12] = target: KEAP1 (wild-type full-length), His-tagged (human) (UniProt Q14145); assay: AlphaScreen, all variants on one plate; optimal condition (19.2 nM NRF2), KEAP1 150 nM; relative to NRF2 (WT) isoform 1
[13] = target: KEAP1 (wild-type full-length), His-tagged (human) (UniProt Q14145); assay: AlphaScreen; NRF2 I86V 4.8 nM, KEAP1 150 nM; signal against NRF2-only control
[14] = target: KEAP1 (wild-type full-length), His-tagged (human) (UniProt Q14145); assay: AlphaScreen, all variants on one plate; upper condition (38.4 nM NRF2), KEAP1 150 nM; relative to NRF2 (WT) isoform 1
[15] = target: KEAP1 (wild-type full-length), His-tagged (human) (UniProt Q14145); assay: AlphaScreen; FLAG-NRF2 I86V 9.6 nM, His-KEAP1 150 nM; Rep 1
[16] = target: KEAP1 (wild-type full-length), His-tagged (human) (UniProt Q14145); assay: AlphaScreen; average ± standard deviation over three NRF2 concentrations, KEAP1 150 nM; relative to wild-type NRF2 isoform 1
[17] = target: KEAP1 (wild-type full-length), His-tagged (human) (UniProt Q14145); assay: AlphaScreen, all variants on one plate; lower condition (9.6 nM NRF2), KEAP1 150 nM; relative to NRF2 (WT) isoform 1
[18] = target: KEAP1 (wild-type full-length), His-tagged (human) (UniProt Q14145); assay: AlphaScreen, all variants on one plate; average of three conditions ± standard deviation, KEAP1 150 nM; relative to NRF2 (WT) isoform 1
[19] = target: KEAP1 (wild-type full-length), His-tagged (human) (UniProt Q14145); assay: AlphaScreen; 2.4 nM FLAG-NRF2, 150 nM His-KEAP1; signal against NRF2 only
[20] = target: KEAP1 (wild-type full-length), His-tagged (human) (UniProt Q14145); assay: AlphaScreen; 4.8 nM FLAG-NRF2, 150 nM His-KEAP1; signal against NRF2 only
[21] = target: KEAP1 (wild-type full-length), His-tagged (human) (UniProt Q14145); assay: AlphaScreen; 38.4 nM FLAG-NRF2, 150 nM His-KEAP1; Rep 1
[22] = target: KEAP1 (wild-type full-length), His-tagged (human) (UniProt Q14145); assay: AlphaScreen; 38.4 nM FLAG-NRF2, 150 nM His-KEAP1; signal against NRF2 only
[23] = target: KEAP1 (wild-type full-length), His-tagged (human) (UniProt Q14145); assay: AlphaScreen; 76.8 nM FLAG-NRF2, 150 nM His-KEAP1; Rep 2
[24] = target: KEAP1 (wild-type full-length), His-tagged (human) (UniProt Q14145); assay: AlphaScreen; 4.8 nM FLAG-NRF2, 150 nM His-KEAP1; Rep 2
[25] = target: KEAP1 (wild-type full-length), His-tagged (human) (UniProt Q14145); assay: AlphaScreen; FLAG-NRF2 Q75R 307.2 nM, His-KEAP1 150 nM; Rep 2
[26] = target: KEAP1 (wild-type full-length), His-tagged (human) (UniProt Q14145); assay: AlphaScreen; FLAG-NRF2 Q75R 4.8 nM, His-KEAP1 150 nM; Rep 1
[27] = target: KEAP1 (wild-type full-length), His-tagged (human) (UniProt Q14145); assay: AlphaScreen; FLAG-NRF2 Q75R 38.4 nM, His-KEAP1 150 nM; Repeat 1

Sequence of KEAP1 (wild-type full-length), His-tagged (human) (Q14145 2-624 limits assumed): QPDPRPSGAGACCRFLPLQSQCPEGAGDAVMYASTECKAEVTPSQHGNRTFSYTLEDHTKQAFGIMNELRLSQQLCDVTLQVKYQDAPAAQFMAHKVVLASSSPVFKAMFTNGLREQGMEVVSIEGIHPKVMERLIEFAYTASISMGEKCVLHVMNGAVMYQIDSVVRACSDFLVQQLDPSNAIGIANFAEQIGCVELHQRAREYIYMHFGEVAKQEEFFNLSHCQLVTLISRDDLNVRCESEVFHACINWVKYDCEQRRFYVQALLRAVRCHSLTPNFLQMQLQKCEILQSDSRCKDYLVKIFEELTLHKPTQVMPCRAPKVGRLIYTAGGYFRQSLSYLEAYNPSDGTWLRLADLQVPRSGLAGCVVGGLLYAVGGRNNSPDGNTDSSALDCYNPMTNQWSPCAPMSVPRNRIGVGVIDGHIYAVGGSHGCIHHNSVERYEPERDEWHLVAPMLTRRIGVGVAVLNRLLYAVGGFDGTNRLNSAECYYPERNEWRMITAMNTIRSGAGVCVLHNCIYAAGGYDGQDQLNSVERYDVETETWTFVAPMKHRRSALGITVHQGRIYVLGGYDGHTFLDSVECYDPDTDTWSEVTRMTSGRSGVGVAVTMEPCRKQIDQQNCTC

A-counts [1]: 959 A-counts
S/N [2]: 3
Binding Percentage [3]: 100%
Average Binding [4]: 100%
A-counts (NRF2 plus KEAP1) [5]: 900 A-counts
% Disruption in Binding [6]: 0%
A-counts [7]: 1120 A-counts
A-counts (NRF2 plus KEAP1) [8]: 1490 A-counts
S/N [9]: 0.9
A-counts (NRF2 plus KEAP1) [10]: 1490 A-counts
A-counts (NRF2 plus KEAP1) [11]: 900 A-counts
B1: NRF2 isoform 1 (wild-type full-length), FLAG-tagged (protein)
chain: MMDLELPPPGLPSQQDMDLIDILWRQDIDLGVSREVFDFSQRRKEYELEKQKKLEKERQEQLQKEQEKAFFAQLQLDEETGEFLPIQPAQHIQSETSGSANYSQVAHIPKSDALYFDDCMQLLAQTFPFVDDNEVSSATFQSLVPDIPGHIESPVFIATNQAQSPETSVAQVAPVDLDGMQQDIEQVWEELLSIPELQCLNIENDKLVETTMVPSPEAKLTEVDNYHFYSSIPSMEKEVGNCSPHFLNAFEDSFSSILSTEDPNQLTVNSLNSDATVNTDFGDEFYSAFIAEPSISNSMPSPATLSHSLSELLNGPIDVSDLSLCKAFNQNHPESTAEFNDSDSGISLNTSPSVASPEHSVESSSYGDTLLGLSDSEVEELDSAPGSVKQNGPKTPVHSSGDMVQPLSPSQGQSTHVHDAQCENTPEKELPVSPGHRKTPFTKDKHSSRLEAHLTRDELRAKALHIPFPVEKIINLPVVDFNEMMSKEQFNEAQLALIRDIRRRGKNKVAAQNCRKRKLENIVELEQDLDHLKDEKEKLLKEKGENDKSLHLLKKQLSTLYLEVFSMLRDEDGKPYSPSEYSLQQTRDGNVFLVPKSKKPDVKKN

% Disruption in Binding [12]: 9.2%
S/N [13]: 2.9
% Disruption in Binding [14]: 10.5%
A-counts (NRF2 plus KEAP1) [15]: 2730 A-counts
Reported Value (reduction in binding) [16]: 3.2%
% Disruption in Binding [17]: 5.7%
% Disruption in Binding (Reported Values) [18]: 8.4%
B2: NRF2 isoform 1 (I86V full-length), FLAG-tagged (protein)
chain: MMDLELPPPGLPSQQDMDLIDILWRQDIDLGVSREVFDFSQRRKEYELEKQKKLEKERQEQLQKEQEKAFFAQLQLDEETGEFLPVQPAQHIQSETSGSANYSQVAHIPKSDALYFDDCMQLLAQTFPFVDDNEVSSATFQSLVPDIPGHIESPVFIATNQAQSPETSVAQVAPVDLDGMQQDIEQVWEELLSIPELQCLNIENDKLVETTMVPSPEAKLTEVDNYHFYSSIPSMEKEVGNCSPHFLNAFEDSFSSILSTEDPNQLTVNSLNSDATVNTDFGDEFYSAFIAEPSISNSMPSPATLSHSLSELLNGPIDVSDLSLCKAFNQNHPESTAEFNDSDSGISLNTSPSVASPEHSVESSSYGDTLLGLSDSEVEELDSAPGSVKQNGPKTPVHSSGDMVQPLSPSQGQSTHVHDAQCENTPEKELPVSPGHRKTPFTKDKHSSRLEAHLTRDELRAKALHIPFPVEKIINLPVVDFNEMMSKEQFNEAQLALIRDIRRRGKNKVAAQNCRKRKLENIVELEQDLDHLKDEKEKLLKEKGENDKSLHLLKKQLSTLYLEVFSMLRDEDGKPYSPSEYSLQQTRDGNVFLVPKSKKPDVKKN

S/N [19]: 2.2
% Disruption in Binding [12]: 22.6%
S/N [20]: 2.9
% Disruption in Binding [14]: 21.5%
A-counts [21]: 1690 A-counts
S/N [22]: 2.7
% Disruption in Binding [17]: 16.7%
A-counts [23]: 1500 A-counts
% Disruption in Binding (Reported Values) [18]: 20.3%
A-counts [24]: 1050 A-counts
B3: NRF2 isoform 1 (I28V full-length), FLAG-tagged (protein)
chain: MMDLELPPPGLPSQQDMDLIDILWRQDVDLGVSREVFDFSQRRKEYELEKQKKLEKERQEQLQKEQEKAFFAQLQLDEETGEFLPIQPAQHIQSETSGSANYSQVAHIPKSDALYFDDCMQLLAQTFPFVDDNEVSSATFQSLVPDIPGHIESPVFIATNQAQSPETSVAQVAPVDLDGMQQDIEQVWEELLSIPELQCLNIENDKLVETTMVPSPEAKLTEVDNYHFYSSIPSMEKEVGNCSPHFLNAFEDSFSSILSTEDPNQLTVNSLNSDATVNTDFGDEFYSAFIAEPSISNSMPSPATLSHSLSELLNGPIDVSDLSLCKAFNQNHPESTAEFNDSDSGISLNTSPSVASPEHSVESSSYGDTLLGLSDSEVEELDSAPGSVKQNGPKTPVHSSGDMVQPLSPSQGQSTHVHDAQCENTPEKELPVSPGHRKTPFTKDKHSSRLEAHLTRDELRAKALHIPFPVEKIINLPVVDFNEMMSKEQFNEAQLALIRDIRRRGKNKVAAQNCRKRKLENIVELEQDLDHLKDEKEKLLKEKGENDKSLHLLKKQLSTLYLEVFSMLRDEDGKPYSPSEYSLQQTRDGNVFLVPKSKKPDVKKN

% Disruption in Binding [12]: 28.3%
A-counts (NRF2 plus KEAP1) [25]: 1020 A-counts
% Disruption in Binding [14]: 25.1%
Reported Value (reduction in binding) [16]: 30.2%
% Disruption in Binding [17]: 29.3%
A-counts (NRF2 plus KEAP1) [26]: 826 A-counts
% Disruption in Binding (Reported Values) [18]: 27.5%
A-counts (NRF2 plus KEAP1) [27]: 1200 A-counts
B4: NRF2 isoform 1 (Q75R full-length), FLAG-tagged (protein)
chain: MMDLELPPPGLPSQQDMDLIDILWRQDIDLGVSREVFDFSQRRKEYELEKQKKLEKERQEQLQKEQEKAFFAQLRLDEETGEFLPIQPAQHIQSETSGSANYSQVAHIPKSDALYFDDCMQLLAQTFPFVDDNEVSSATFQSLVPDIPGHIESPVFIATNQAQSPETSVAQVAPVDLDGMQQDIEQVWEELLSIPELQCLNIENDKLVETTMVPSPEAKLTEVDNYHFYSSIPSMEKEVGNCSPHFLNAFEDSFSSILSTEDPNQLTVNSLNSDATVNTDFGDEFYSAFIAEPSISNSMPSPATLSHSLSELLNGPIDVSDLSLCKAFNQNHPESTAEFNDSDSGISLNTSPSVASPEHSVESSSYGDTLLGLSDSEVEELDSAPGSVKQNGPKTPVHSSGDMVQPLSPSQGQSTHVHDAQCENTPEKELPVSPGHRKTPFTKDKHSSRLEAHLTRDELRAKALHIPFPVEKIINLPVVDFNEMMSKEQFNEAQLALIRDIRRRGKNKVAAQNCRKRKLENIVELEQDLDHLKDEKEKLLKEKGENDKSLHLLKKQLSTLYLEVFSMLRDEDGKPYSPSEYSLQQTRDGNVFLVPKSKKPDVKKN
